Reference: patent publication US20140112919A1
pIC50: −log10 of the molar value.

Columns and labels:
[1] = molecular target: T1, recombinant hIL-10Ra: FLAG-tagged protein (human) (UniProt Q13651); test: competitive ECLA (IGEN): unlabeled IL-10 titrated against hIL-10-biotin for binding to FLAG-tagged hIL-10Ra
T1 sequence: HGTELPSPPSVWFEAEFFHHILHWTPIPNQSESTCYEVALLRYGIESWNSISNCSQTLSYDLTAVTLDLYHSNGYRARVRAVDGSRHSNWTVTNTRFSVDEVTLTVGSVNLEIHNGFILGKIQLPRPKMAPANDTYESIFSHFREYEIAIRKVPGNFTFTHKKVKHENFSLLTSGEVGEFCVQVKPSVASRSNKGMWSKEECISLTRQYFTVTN

rat anti hIL-10 mAb 12G8 = test: competitive ECLA (IGEN): unlabeled IL-10 titrated against hIL-10-biotin for binding to rat 12G8

recombinant cyno IL-10, sequence (P79338 19-178 limits assumed): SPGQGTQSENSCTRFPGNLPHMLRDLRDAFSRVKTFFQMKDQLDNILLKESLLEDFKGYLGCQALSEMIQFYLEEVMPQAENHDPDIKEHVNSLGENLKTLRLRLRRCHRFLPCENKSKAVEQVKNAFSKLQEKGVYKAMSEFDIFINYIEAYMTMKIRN

## recombinant cyno IL-10 (from UniProt P79338) (ligand)
[1]
  pIC50: 7.75
Rat anti hIL-10 mAb 12G8
  pIC50: 8.18

## recombinant human IL-10 (from UniProt P22301) (ligand)
[1]
  pIC50: 8.54
Rat anti hIL-10 mAb 12G8
  pIC50: 8.33

## recombinant human IL-10-monomer (from UniProt P22301) (ligand)
[1]
  pIC50: 8.14
Rat anti hIL-10 mAb 12G8
  pIC50: 8.15
